The target in experiment [1] is T1, FcγRIIa α subunit ECD-6His-GST fusion protein (UniProt P12318 34-217).
T1 construct: not shown: glutathione S transferase (GST)
T1 sequence: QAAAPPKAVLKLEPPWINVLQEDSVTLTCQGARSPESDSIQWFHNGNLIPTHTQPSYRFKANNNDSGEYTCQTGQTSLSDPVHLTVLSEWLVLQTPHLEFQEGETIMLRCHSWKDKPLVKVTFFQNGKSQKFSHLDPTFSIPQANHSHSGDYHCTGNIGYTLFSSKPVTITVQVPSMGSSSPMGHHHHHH
The experiment is described as follows: ELISA, E27:chimeric IgE:VEGF immune complex on coated receptor ECD-6His-GST.

In experiment [2] the target is T2, FcγRIIIa α subunit ECD-6His-GST fusion protein (UniProt P08637 17-208).
T2 construct: not shown: glutathione S transferase (GST)
T2 sequence (P08637 other isoform, or with tags, fused parts or gaps, form in doubt): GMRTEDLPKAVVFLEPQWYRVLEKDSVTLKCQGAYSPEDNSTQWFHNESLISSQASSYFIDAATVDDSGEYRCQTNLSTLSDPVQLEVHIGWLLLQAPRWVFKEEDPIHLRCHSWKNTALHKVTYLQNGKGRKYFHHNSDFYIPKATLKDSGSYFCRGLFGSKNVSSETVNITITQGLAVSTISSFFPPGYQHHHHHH
The description is as above.

The target of experiment [3] is T3, FcγRIIb α subunit ECD-6His-GST fusion protein (UniProt P31994 43-217).
T3 construct: not shown: glutathione S transferase (GST)
T3 sequence: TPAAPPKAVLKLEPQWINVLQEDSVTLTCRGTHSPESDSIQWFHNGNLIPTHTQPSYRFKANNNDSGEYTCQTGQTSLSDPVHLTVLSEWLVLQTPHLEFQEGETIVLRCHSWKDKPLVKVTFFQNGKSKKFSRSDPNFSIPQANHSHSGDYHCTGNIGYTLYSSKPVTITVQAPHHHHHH
Described as above.

In experiment [4] the target is T4, FcγRI α subunit-GST fusion (UniProt P12314 16-292).
T4 construct: not shown: glutathione S transferase (GST)
T4 sequence (P12314 other isoform, or with tags, fused parts or gaps, form in doubt): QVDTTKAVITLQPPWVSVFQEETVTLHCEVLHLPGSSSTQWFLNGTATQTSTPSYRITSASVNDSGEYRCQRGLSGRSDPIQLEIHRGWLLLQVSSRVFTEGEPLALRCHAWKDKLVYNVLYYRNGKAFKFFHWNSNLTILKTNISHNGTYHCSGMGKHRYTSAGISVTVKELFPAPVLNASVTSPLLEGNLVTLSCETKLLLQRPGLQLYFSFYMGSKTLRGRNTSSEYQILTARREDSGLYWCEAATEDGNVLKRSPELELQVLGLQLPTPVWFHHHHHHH
As to the kind of experiment: ELISA, monomeric IgG on coated FcγRI α subunit-GST. In general terms: An ELISA detects its analyte on a solid surface through an enzyme-linked reagent.

This note sets out measurements from patent publication US20030158389A1 (Genentech, published 2003).

B1: E27 anti-IgE antibody, wild type (humanized IgG1) (antibody)
heavy: not shown
light: DIQLTQSPSSLSASVGDRVTITCRASKPVDGEGDSYMNWYQQKPGKAPKLLIYAASYLESGVPSRFSGSGSGTDFTLTISSLQPEDFATYYCQQSHEDPYTFGQGTKVEIKRTVAAPSVFIFPPSDEQLKSGTASVVCLLNNFYPREAKVQWKVDNALQSGNSQESVTEQDSKDSTYSLSSTLTLSKADYEKHKVYACEVTHQGLSSPVTKSFNRGEC
notes: In the FcγRII and FcγRIII ELISAs it stood as an immune complex E27:chimeric IgE:VEGF (1:1:2); also called wt; recombinant anti-IgE E27
Consider B1, for which the “binding as percentage of the wild type” value in experiment [1], in experiment [2], in experiment [3] and in experiment [4] was 100% throughout.

B2: E27 anti-IgE antibody mutant K322A (antibody)
heavy: not shown
light: DIQLTQSPSSLSASVGDRVTITCRASKPVDGEGDSYMNWYQQKPGKAPKLLIYAASYLESGVPSRFSGSGSGTDFTLTISSLQPEDFATYYCQQSHEDPYTFGQGTKVEIKRTVAAPSVFIFPPSDEQLKSGTASVVCLLNNFYPREAKVQWKVDNALQSGNSQESVTEQDSKDSTYSLSSTLTLSKADYEKHKVYACEVTHQGLSSPVTKSFNRGEC
notes: also called K322A (E27 background)
B2: the “binding as percentage of the wild type” value was 109% in experiment [1], 90% in experiment [2], 101% in experiment [3] and 90% in experiment [4].

B3: E27 anti-IgE antibody mutant P329A (antibody)
heavy: not shown
light: DIQLTQSPSSLSASVGDRVTITCRASKPVDGEGDSYMNWYQQKPGKAPKLLIYAASYLESGVPSRFSGSGSGTDFTLTISSLQPEDFATYYCQQSHEDPYTFGQGTKVEIKRTVAAPSVFIFPPSDEQLKSGTASVVCLLNNFYPREAKVQWKVDNALQSGNSQESVTEQDSKDSTYSLSSTLTLSKADYEKHKVYACEVTHQGLSSPVTKSFNRGEC
notes: also called P329A (E27 background)
Take B3: the “binding as percentage of the wild type” value came out at 111% in experiment [1], 85% in experiment [2], 96% in experiment [3] and 104% in experiment [4].

B4: E27 anti-IgE antibody mutant P331A (antibody)
heavy: not shown
light: DIQLTQSPSSLSASVGDRVTITCRASKPVDGEGDSYMNWYQQKPGKAPKLLIYAASYLESGVPSRFSGSGSGTDFTLTISSLQPEDFATYYCQQSHEDPYTFGQGTKVEIKRTVAAPSVFIFPPSDEQLKSGTASVVCLLNNFYPREAKVQWKVDNALQSGNSQESVTEQDSKDSTYSLSSTLTLSKADYEKHKVYACEVTHQGLSSPVTKSFNRGEC
notes: also called P331A (E27 background)
Turning to B4, the “binding as percentage of the wild type” value in experiment [1] was determined as 86%; in experiment [2], 73%; in experiment [3], 58%; in experiment [4] it was 74%.

B5: E27 anti-IgE antibody mutant E318A (antibody)
heavy: not shown
light: DIQLTQSPSSLSASVGDRVTITCRASKPVDGEGDSYMNWYQQKPGKAPKLLIYAASYLESGVPSRFSGSGSGTDFTLTISSLQPEDFATYYCQQSHEDPYTFGQGTKVEIKRTVAAPSVFIFPPSDEQLKSGTASVVCLLNNFYPREAKVQWKVDNALQSGNSQESVTEQDSKDSTYSLSSTLTLSKADYEKHKVYACEVTHQGLSSPVTKSFNRGEC
notes: also called E318A (E27 background)
As for B5, the “binding as percentage of the wild type” value in experiment [1] was 113%; in experiment [2], 104%; in experiment [3], 106%; in experiment [4] it was 93%.

B6: E27 anti-IgE antibody mutant K320A (antibody)
heavy: not shown
light: DIQLTQSPSSLSASVGDRVTITCRASKPVDGEGDSYMNWYQQKPGKAPKLLIYAASYLESGVPSRFSGSGSGTDFTLTISSLQPEDFATYYCQQSHEDPYTFGQGTKVEIKRTVAAPSVFIFPPSDEQLKSGTASVVCLLNNFYPREAKVQWKVDNALQSGNSQESVTEQDSKDSTYSLSSTLTLSKADYEKHKVYACEVTHQGLSSPVTKSFNRGEC
notes: also called K320A (E27 background)
Take B6: the “binding as percentage of the wild type” value in experiment [1] was found to be 94%; in experiment [2], 72%; in experiment [3], 83%; in experiment [4], 102%.
